The source of these data is article PMC6061780 (Nucleic Acids Research, 2018).

As a reminder, the Kd is the equilibrium constant for the complex coming apart. Low readings indicate a tighter complex, high ones a looser complex.

Common to all, as to test: ITC
In general terms: Isothermal titration calorimetry measures the heat released or taken up as one component is titrated into another.

The target of experiment [1] is Sc eIF4G (residues V448–N500; C+L+NC)-GB1 (Saccharomyces cerevisiae, UniProt P39935 448-500).
For experiment [2], the target named is T1, Sc eIF4E (residues T25–L213), His6 tag removed (Saccharomyces cerevisiae, UniProt P07260 25-213).
T1 sequence (looked up): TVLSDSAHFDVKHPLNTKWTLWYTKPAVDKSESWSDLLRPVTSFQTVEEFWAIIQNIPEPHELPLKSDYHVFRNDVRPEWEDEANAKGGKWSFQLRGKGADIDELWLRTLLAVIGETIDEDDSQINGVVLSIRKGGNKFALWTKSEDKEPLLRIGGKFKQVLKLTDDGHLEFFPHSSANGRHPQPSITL

Experiment [3] addresses T2, Sc eIF4E Δ34 (residues V35–L213), His6 tag removed (Saccharomyces cerevisiae, UniProt P07260 35-213).
T2 sequence (looked up): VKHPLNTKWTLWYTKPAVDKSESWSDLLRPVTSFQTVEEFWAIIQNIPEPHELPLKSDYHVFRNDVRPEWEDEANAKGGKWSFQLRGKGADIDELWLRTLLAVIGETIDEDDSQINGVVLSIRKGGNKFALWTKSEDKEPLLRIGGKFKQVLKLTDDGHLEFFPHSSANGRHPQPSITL

B1: Sc eIF4E II-AA lateral surface mutant, His6 tag removed (ITC) (domain or fragment)
chain: GPHMTVLSDSAHFDVKHPLNTKWTLWYTKPAVDKSESWSDLLRPVTSFQTVEEFWAAIQNAPEPHELPLKSDYHVFRNDVRPEWEDEANAKGGKWSFQLRGKGADIDELWLRTLLAVIGETIDEDDSQINGVVLSIRKGGNKFALWTKSEDKEPLLRIGGKFKQVLKLTDDGHLEFFPHSSANGRHPQPSITL
With B1, in experiment [1], binding was characterised by a dissociation constant (Kd) of 1020 ± 90 nM.

B2: Sc Eap1p L+NC fragment (residues S123–G150)-GB1 (domain or fragment, Saccharomyces cerevisiae, UniProt P36041 123-150, looked up)
chain: SASYEEDPLISELVRSLPKRKFWRLRMG
In experiment [2], B2 gave a Kd of 1000 ± 100 nM.

B3: Sc Eap1p (T91–A122; N_(short)+C)-GB1 (domain or fragment, Saccharomyces cerevisiae, UniProt P36041 91-122, looked up)
chain: TDPITNYKPMDLQYKTYAYSMNELYHLKPSLA
In the case of B3, the Kd in experiment [2] was determined as 12.9 ± 0.9 nM; in experiment [3], 8.8 ± 0.5 nM.

B4: Sc Eap1p (residues K80–A122; N+C peptide)-GB1 (domain or fragment, Saccharomyces cerevisiae, UniProt P36041 80-122, looked up)
chain: KKTAMLNFSSLTDPITNYKPMDLQYKTYAYSMNELYHLKPSLA
The molecule B4 registered a Kd in experiment [2] of 8 ± 4 nM.

B5: Sc Eap1p canonical motif (C)-GB1 (domain or fragment)
chain: GPHMDLQYKTYAYSMNELYHLKPSLA
Molecule B5 showed a Kd in experiment [2] of 3400 ± 300 nM.
